Test results reported in paper PMC3627919.

Legend:
Nfluc416-PKN (human) = Nfluc416-PKN (human) (UniProt Q16512); test: split reporter (BiFC, NanoBiT); bimolecular luminescence complementation (split firefly luciferase) in living HEK 293 cells, 24 h after transient cotransfection of the pair (50 ng/well) with pRL-tk; D-luciferin 150 ug/ml; IVIS CCD camera; ratio FL at 600 nm to RL at 500 nm; wild-type pairs also with co-expressed GEF or GAP catalytic domains
Nfluc416-PAK = Nfluc416-PAK (UniProt Q13153); test: split-luciferase complementation (BiLC) optical imaging in transiently cotransfected 293 cells; conditions: parent: est. 4.6; read off a plot
Nfluc416-WASP (human) = Nfluc416-WASP (human) (UniProt P42768); test: split reporter (BiFC, NanoBiT); bimolecular luminescence complementation (split firefly luciferase) in living HEK 293 cells, 24 h after transient cotransfection of the pair (50 ng/well) with pRL-tk; D-luciferin 150 ug/ml; IVIS CCD camera; ratio FL at 600 nm to RL at 500 nm; wild-type pairs also with co-expressed GEF or GAP catalytic domains
Chain of Nfluc416-WASP (human) (P42768 220-288): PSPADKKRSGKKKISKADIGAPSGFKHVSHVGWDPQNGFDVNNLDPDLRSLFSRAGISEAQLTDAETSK

Chain of Nfluc416-PKN (human) (Q16512 13-112): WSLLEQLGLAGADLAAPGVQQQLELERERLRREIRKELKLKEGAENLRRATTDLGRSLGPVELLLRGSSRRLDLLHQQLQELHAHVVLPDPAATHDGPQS

Cfluc398-RhoA(G14V) (from UniProt P61586 1-193) (natural protein)
luminescence signal, fold of the active mutant over the wild type (Nfluc416-PKN (human)): 5.15 fold

Cfluc398-RacI(WT) (from UniProt P63000) F37A
response (Nfluc416-PAK): 1.4 FL/RL

Cfluc398-RacI(WT) (from UniProt P63000) T17N
response (Nfluc416-PAK): 2.1 FL/RL

CDC42-Cfluc398 (CDC42 G12V) (from UniProt P60953 1-176; P60953 171-191) (natural protein)
reconstituted luminescence (FL/RL), fold over CDC42 F37A (Nfluc416-WASP (human)): 12.7 fold
reconstituted luminescence (FL/RL), fold over CDC42 T17N (Nfluc416-WASP (human)): 6.8 fold
reconstituted luminescence (FL/RL), fold over CDC42 WT (Nfluc416-WASP (human)): 2.9 fold
